From paper doi:10.1101/2024.10.30.620894 (bioRxiv, 2024) come the findings set out here.

The target of series [1] is VLDLR(28-797)Δ(751-779)-C-tag (VLDLR ectodomain, VLDLR-ed) (human) (UniProt P98155). The series is described as follows: ELISA. Background: In an ELISA, binding on a coated surface is turned into a signal by an enzyme label.
The series “SEC” deals with the molecule itself. In words: SEC.

As usually defined, the Kd is a measure of binding affinity in units of concentration. Read a low Kd as tighter binding. Broadly, the stoichiometry N is the number of molecules, sites or subunits per partner or assembly.

Regarding “receptor-associated protein (RAP) (from UniProt P30533 36-357) (natural protein)”, the Kd in series [1] is 1.2 nM.

B1: wild-type clusterin (WT-Clu) (natural protein, human)
chain 1: DQTVSDNELQEMSNQGSKYVNKEIQNAVNGVKQIKTLIEKTNEERKTLLSNLEEAKKKKEDALNETRESETKLKELPGVCNETMMALWEECKPCLKQTCMKFYARVCRSGSGLVGRQLEEFLNQSSPFYFWMNGDRIDSLLENDRQQTHMLDVMQDHFSRASSIIDELFQDRFFTREPQDTYHYLPFSLPHRRPHFFFPKSRIVR
chain 2: SLMPFSPYEPLNFHAMFQPFLEMIHEAQQAMDIHFHSPAFQHPPTEFIREGDDDRTVCREIRHNSTGCLRMKDQCDKCREILSVDCSTNNPSQAKLRRELDESLQVAERLTRKYNELLKSYQWKMLNTSSLLEQLNEQFNWVSRLANLTQGEDQYYLRVTTVASHTSDSDVPSGVTEVVVKLFDSDPITVTVPVEVSRKNPKFMETVAEKALQEYRKKHREE
modifications: N-glycans (six in the whole protein) | N-glycans (six in the whole protein)
B1: the “stoichiometry N” value in “SEC” stood at 2. In series [1], this molecule returned a Kd of 80 nM.
